Read-outs that look alike come from different tables or passages of the source. Non-standard residues stand in square brackets, D forms with d. No end group written: not given here. Abu = CC[C@H](N)C(=O)O
Experiments:
[1] = target: soluble HLA-A2.01 molecules; test: competition with 125I-F10V for HLA-A2.01, ratio peptide/125I-F10V 10/1
[2] = target: soluble HLA-A2.01 molecules; test: competition with 125I-F10V for HLA-A2.01, ratio peptide/125I-F10V 25/1
[3] = target: HLA-A2.01 molecule at the surface of T2 cells; test: T2 cells loaded overnight; residual surface complexes by indirect immunofluorescence and FACS at 0, 2, 4 and 5 h
[4] = target: HLA-A2.01 molecule at the surface of T2 cells; test: T2 cell HLA-A2.01 stabilization; concentration ratio against the reference peptide for 20% of maximal stabilized molecules
[5] = target: HLA-A2.01 molecule at the surface of T2 cells

RIAECILGM (modifications not checked) [wildtype R9M peptide]
percentage inhibition of the binding of 125I-F10V, ratio 10/1 [1]: 64% | percentage inhibition of the binding of 125I-F10V, ratio 25/1 [2]: 69% | DC50 (half-life of the peptide-HLA-A2.1 complex) [3]: < 2 h | RA [4]: 2.9

RIAESILGM (modifications not checked) [R9M-5S]
DC50 (half-life of the peptide-HLA-A2.1 complex) [5]: 2 h | RA [5]: 2.2 | percentage inhibition of the binding of 125I-F10V, ratio 10/1 [1]: 74% | percentage inhibition of the binding of 125I-F10V, ratio 25/1 [2]: 75%

YIAEAILGM (modifications not checked) [Y9M-5A]
percentage inhibition of the binding of 125I-F10V, ratio 10/1 [1]: 79% | percentage inhibition of the binding of 125I-F10V, ratio 25/1 [2]: 87% | RA [4]: 0.9

RIAEAILGM (modifications not checked) [R9M-5A]
percentage inhibition of the binding of 125I-F10V, ratio 10/1 [1]: 59% | percentage inhibition of the binding of 125I-F10V, ratio 25/1 [2]: 72% | DC50 (half-life of the peptide-HLA-A2.1 complex) [3]: < 2 h | RA [4]: 3.2

YIAECILGM (modifications not checked) [Y9M]
DC50 (half-life of the peptide-HLA-A2.1 complex) [3]: < 2 h

YIAE[Abu]ILGM [Y9M-5α-but]
percentage inhibition of the binding of 125I-F10V, ratio 10/1 [1]: 26% | percentage inhibition of the binding of 125I-F10V, ratio 25/1 [2]: 26% | RA [4]: 0.7

YMPIGRIAE (modifications not checked) [Y9E]
DC50 (half-life of the peptide-HLA-A2.1 complex) [3]: 0 h

AMPIGRIAE (modifications not checked) [A9E]
percentage inhibition of the binding of 125I-F10V, ratio 10/1 [1]: 47% | percentage inhibition of the binding of 125I-F10V, ratio 25/1 [2]: 57%

YIGRIAECI (modifications not checked) [Y9I]
DC50 (half-life of the peptide-HLA-A2.1 complex) [3]: < 2 h

PIGRIAECI (modifications not checked) [P9I]
DC50 (half-life of the peptide-HLA-A2.1 complex) [3]: 0 h

RIAE[Abu]ILGM [R9M-5α-but]
percentage inhibition of the binding of 125I-F10V, ratio 10/1 [1]: 27% | percentage inhibition of the binding of 125I-F10V, ratio 25/1 [2]: 49% | DC50 (half-life of the peptide-HLA-A2.1 complex) [3]: 2 h | RA [4]: 2

YIAESILGM (modifications not checked) [Y9M-5S]
percentage inhibition of the binding of 125I-F10V, ratio 10/1 [1]: 25% | percentage inhibition of the binding of 125I-F10V, ratio 25/1 [2]: 37% | RA [4]: 1.4

From US20040018205A1
